Here are results for eight molecules from patent publication US20220332791A1 (ALIVEGEN, published 2022).

Positions count from the first letter of the chain named.

The target of assay [1] is T1, myostatin (UniProt O14793 267-375).
T1 sequence (looked up): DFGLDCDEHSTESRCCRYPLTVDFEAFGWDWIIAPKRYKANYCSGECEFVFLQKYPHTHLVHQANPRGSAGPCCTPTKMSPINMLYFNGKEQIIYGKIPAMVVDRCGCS
Kind of assay: cell-based or functional assay.

Assay [2] has as its target T2, activin A (UniProt P08476 311-426).
T2 sequence (looked up): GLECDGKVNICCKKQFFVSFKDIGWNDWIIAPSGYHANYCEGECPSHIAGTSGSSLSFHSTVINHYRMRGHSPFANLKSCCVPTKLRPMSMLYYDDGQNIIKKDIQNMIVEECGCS
Kind of assay: cell-based or functional assay.

Assay [3] addresses T3, activin B (UniProt P09529 293-407).
T3 sequence (looked up): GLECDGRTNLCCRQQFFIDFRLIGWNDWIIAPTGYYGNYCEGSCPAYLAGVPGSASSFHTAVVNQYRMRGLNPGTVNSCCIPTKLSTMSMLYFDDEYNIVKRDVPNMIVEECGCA
The assay can be described thus: cell-based or functional assay.

Assay [4] deals with T4, BMP9 (UniProt Q9UK05 320-429).
T4 sequence (looked up): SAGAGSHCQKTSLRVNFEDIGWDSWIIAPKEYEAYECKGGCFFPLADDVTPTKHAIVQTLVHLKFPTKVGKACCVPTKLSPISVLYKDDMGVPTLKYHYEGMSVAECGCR
Kind of assay: cell-based or functional assay.

Assay [5] has as its target T2, activin A. The assay can be described thus: cell-based or functional assay. This is another data set of the same source.
Assay [6] addresses T4, BMP9. Kind of assay: cell-based or functional assay. The source holds these as a separate data set.
Assay [7] addresses T4, BMP9. The assay can be described thus: Octet Red BLI, trap on AHC biosensors, 10 nM BMP9; legend: +++ KD < 10^-8M. Here is the method:
(§1) Myostatin and BMP9 binding activities of various hybrid ActRIIB ligand trap proteins were initially analyzed using Octect Red (ForteBio). Purified proteins or conditioned media were individually loaded to AHC biosensors with maximum loading. Following a baseline washing phase, the sensors were exposed to 10 nM myostatin or BMP9, respectively, for an association step followed by a dissociation step. All experiments were performed with shaking at 1,000 rpm. Binding activity was analyzed using ForteBio's software with KD being calculated using the ratio Kd/Ka.
(Biolayer interferometry detects binding as a change in optical thickness at a sensor tip.)

Assay [8] has as its target T4, BMP9. Kind of assay: KinExA, BMP-9-coupled Sepharose beads, trap held constant and ligand titrated. Here is the method: (§2) AG-0014 and AG-0027 were analyzed by kinetic exclusion assay (KinExA) (Sapidyne Instruments, Inc.). 20-30 μg/ml of myostatin, activin A or BMP-9 was separately coupled to NHS-Activated Sepharose 4 Fast Flow beads (GE Healthcare) using experimental procedures recommended by Sapidyne Instruments. The concentration for each hybrid ActRIIB ligand trap protein was held constant as the ligand was titrated in a 2.5-fold serial dilution. Solutions were allowed to reach equilibrium by incubation at room temperature up to 24 hours and subsequently passed through a flow cell pre-packed with ligand-coated Sepharose beads on a KinExA 3000 machine (Sapidyne Instruments). The free hybrid ActRIIB ligand trap proteins captured on the beads was detected by Alexa Fluor 647-labeled goat anti-human-Fc antibody (Jackson ImmunoResearch Laboratories, Inc.). The ligand binding affinity values (KD) were calculated using the KinExA Pro software (Sapidyne Instruments).
Background: A kinetic exclusion assay measures how much of one partner remains free in solution.

Assay [9] deals with T1, myostatin. Kind of assay: Octet Red BLI, trap on AHC biosensors, 10 nM myostatin; legend: +++ KD < 10^-8M. As for the experimental part:
as §1

Assay [10] addresses T2, activin A. The assay can be described thus: KinExA, activin A-coupled Sepharose beads, trap held constant and ligand titrated. As for the experimental part: as §2
The target of assay [11] is T1, myostatin. Kind of assay: KinExA, myostatin-coupled Sepharose beads, trap held constant and ligand titrated. As for the experimental part: as §2
Assay [12] has as its target T1, myostatin. Kind of assay: cell-based or functional assay. This is another data set of the same source.
For assay [13], the target named is T4, BMP9. The assay can be described thus: Octet Red BLI, trap on AHC biosensors, 10 nM BMP9; legend: + KD 10^-4 - 10^-6M. Here is the method:
as §1

Assay [14] addresses T4, BMP9. The assay can be described thus: Octet Red BLI, trap on AHC biosensors, 10 nM BMP9; legend: ++ KD: 10^-6 - 10^-7M. As for the experimental part:
as §1

B1: wild-type ActRIIB-ECD-Fc fusion protein (Fc fusion)
chain: ETRECIYYNANWELERTNQSGLERCEGEQDKRLHCYASWRNSSGTIELVKKGCWLDDFNCYDRQECVATEENPQVYFCCCEGNFCNERFTHLPEAGGPEVTYEPPPTAPTGGGGSESKYGPPCPPCP
notes: also called WT ActRIIB-Fc; WT; not shown: human Fc domain
As for B1, the “Cell-Based IC50 (nM) Against Myostatin, C2C12-CAGA-luc reporter” value (“Cell-Based IC50 (nM) Against Myostatin” below) in assay [1] is 1.24 nM. In [2], the “Cell-Based IC50 (nM) Against Activin A, C2C12-CAGA-luc reporter” value turned out to be 1.27 nM. Besides, the “Cell-Based IC50 (nM) Against Activin B, C2C12-CAGA-luc reporter” value (“Cell-Based IC50 (nM) Against Activin B” below) in [3] came out at 1.04 nM. For the same molecule, the “Cell-Based IC50 (nM) Against BMP9, C2C12-BRE-luc reporter” value in assay [4] came to 3.4 nM. Also, in assay [5], the “IC50 (read off the curve) (activin A-induced luciferase, C2C12-CAGA-luc reporter cells)” value is roughly 4 nM. Moreover, in assay [6], the “IC50 (read off the curve) (BMP9-induced luciferase, C2C12-BRE-luc reporter cells)” value was roughly 10 nM. Moreover, the KD in assay [7] and in assay [9] was less than 10 nM each time. Moreover, the Kd (commonly a measure of binding affinity in units of concentration) in assay [8] came out at 0.00425 nM; in assay [10], 0.00138 nM; in assay [11] it was 0.00506 nM.

B2: hybrid ActRIIB ligand trap protein AG-0014 (SEQ ID NO: 16) (Fc fusion)
chain: B1 chain with E26Y, E28D, Q29K, L33R
notes: also called Hybrid Trap B; not shown: human Fc domain
Regarding B2, the “Cell-Based IC50 (nM) Against Myostatin” value in [1] was determined as 0.95 nM. The “Cell-Based IC50 (nM) Against Activin A, C2C12-CAGA-luc reporter” value in assay [2] is 1.15 nM. Also, in assay [3], the “Cell-Based IC50 (nM) Against Activin B” value turned out to be 2.1 nM. The KD (commonly the constant that tells how readily two partners part at equilibrium) in [9] is less than 10 nM. The Kd amounted to 0.000357 nM in [10] and 0.00875 nM in assay [11].

B3: hybrid ActRIIB ligand trap protein AG-0005 (SEQ ID NO: 7) (Fc fusion, not shown: a dimerising Fc or GST)
chain: B1 chain with Q64T, E65D, A68E, T69K, E70K, E71D, N72S
For B3, the “IC50 (read off the curve) (myostatin-induced luciferase, C2C12-CAGA-luc reporter cells)” value in assay [12] is roughly 1 nM. Also, the “IC50 (read off the curve) (activin A-induced luciferase, C2C12-CAGA-luc reporter cells)” value in assay [5] is roughly 10 nM. Further, the KD is 1000 to 100000 nM in assay [13] and less than 10 nM in [9].

B4: hybrid ActRIIB ligand trap protein AG-0008 (SEQ ID NO: 10) (Fc fusion)
chain: B1 chain with A68E, T69K, E70K, E71D, N72S
notes: not shown: human Fc domain
For B4, the KD in assay [9] was less than 10 nM; in assay [14], 100 to 1000 nM.

B5: hybrid ActRIIB ligand trap protein AG-0003 (SEQ ID NO: 5) (Fc fusion, not shown: a dimerising Fc or GST)
chain: B1 chain with F58I, Q64T, E65D, A68E, T69K, E70K, E71D, N72S, Q74E
In the case of B5, in assay [12], the “IC50 (read off the curve) (myostatin-induced luciferase, C2C12-CAGA-luc reporter cells)” value was roughly 0.4 nM. Moreover, the “IC50 (read off the curve) (activin A-induced luciferase, C2C12-CAGA-luc reporter cells)” value in assay [5] is roughly 10 nM. The KD in assay [9] was less than 10 nM; in assay [14], 100 to 1000 nM.

B6: hybrid ActRIIB ligand trap protein AG-0007 (SEQ ID NO: 9) (Fc fusion)
chain: B1 chain with A68E, T69K, E70K, E71D, N72S, Q74E
notes: not shown: human Fc domain
With B6, the KD in [13] was 1000 to 100000 nM; in [9], less than 10 nM.

B7: hybrid ActRIIB ligand trap protein AG-0027 (SEQ ID NO: 29) (Fc fusion)
chain: B1 chain with E28D, F58I, E70K
notes: also called Hybrid Trap A; Hybrid Trap; not shown: human Fc domain
Take B7: in [1], the “Cell-Based IC50 (nM) Against Myostatin” value was found to be 1.14 nM. Further, in assay [2], the “Cell-Based IC50 (nM) Against Activin A, C2C12-CAGA-luc reporter” value came to 1.62 nM. Moreover, the “Cell-Based IC50 (nM) Against Activin B” value in [3] was found to be 1.3 nM. This molecule also yielded a KD in [9] of less than 10 nM. Also, the values for the Kd in assay [10] and in [11] were 0.00109 nM and 0.00787 nM, respectively.

B8: hybrid ActRIIB ligand trap protein AG-0006 (SEQ ID NO: 8) (Fc fusion)
chain: B1 chain with Q64T, E65D, A68E, T69K, E70K, E71D, N72S, Q74E
notes: not shown: human Fc domain
In the case of B8, the results for the KD in assay [13] and in assay [9] were 1000 to 100000 nM and less than 10 nM, respectively.
